Test results published in US20190134153A1, “IMMUNOMODULATORY EFFECT OF INHALED KINASE INHIBITOR PEPTIDES IN LUNG” (MOERAE MATRIX, INC., priority 2017, published 2019).

What was measured:
Experiment in all cases: Kinase Profiling Assay
Type in all cases: biochemical
Settings in all cases: 100 μM
Abl(T315I)(h) = Abl(T315I)(h) (Homo sapiens, UniProt P00519, T315I)
TAO2(h) = target: T1, TAO2(h) (Homo sapiens, UniProt Q9UL54)
T1 sequence (Q9UL54 1-1235): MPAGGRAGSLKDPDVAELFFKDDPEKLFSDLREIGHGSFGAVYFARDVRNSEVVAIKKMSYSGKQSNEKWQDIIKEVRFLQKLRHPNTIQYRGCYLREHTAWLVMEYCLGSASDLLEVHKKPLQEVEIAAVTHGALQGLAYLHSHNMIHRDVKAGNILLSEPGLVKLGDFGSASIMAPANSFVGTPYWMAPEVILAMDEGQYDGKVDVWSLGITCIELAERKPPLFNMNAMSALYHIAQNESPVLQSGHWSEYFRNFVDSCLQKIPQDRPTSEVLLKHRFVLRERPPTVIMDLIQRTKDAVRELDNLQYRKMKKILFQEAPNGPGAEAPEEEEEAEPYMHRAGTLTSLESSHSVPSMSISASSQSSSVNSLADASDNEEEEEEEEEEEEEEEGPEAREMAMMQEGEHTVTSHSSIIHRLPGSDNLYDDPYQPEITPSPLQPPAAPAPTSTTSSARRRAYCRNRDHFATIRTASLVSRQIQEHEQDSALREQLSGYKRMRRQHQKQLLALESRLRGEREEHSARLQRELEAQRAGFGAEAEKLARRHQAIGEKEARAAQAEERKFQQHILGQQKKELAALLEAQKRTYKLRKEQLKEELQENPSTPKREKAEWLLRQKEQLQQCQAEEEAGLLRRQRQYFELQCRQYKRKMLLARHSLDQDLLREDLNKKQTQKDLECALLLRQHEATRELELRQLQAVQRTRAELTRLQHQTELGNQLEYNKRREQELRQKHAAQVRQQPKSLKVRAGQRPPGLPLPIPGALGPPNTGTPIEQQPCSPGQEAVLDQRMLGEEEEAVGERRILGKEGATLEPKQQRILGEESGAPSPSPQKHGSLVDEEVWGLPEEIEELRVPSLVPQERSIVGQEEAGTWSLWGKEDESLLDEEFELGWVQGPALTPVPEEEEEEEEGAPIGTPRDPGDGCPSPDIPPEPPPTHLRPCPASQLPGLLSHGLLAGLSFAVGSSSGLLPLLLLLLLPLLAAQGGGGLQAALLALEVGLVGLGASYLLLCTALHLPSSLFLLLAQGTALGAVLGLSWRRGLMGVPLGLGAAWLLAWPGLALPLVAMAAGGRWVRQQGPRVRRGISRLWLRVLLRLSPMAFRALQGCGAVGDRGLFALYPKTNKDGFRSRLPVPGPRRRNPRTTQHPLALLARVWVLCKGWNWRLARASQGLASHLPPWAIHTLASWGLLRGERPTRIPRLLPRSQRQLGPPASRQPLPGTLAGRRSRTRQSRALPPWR

ALK4(h) = target: T2, ALK4(h) (Homo sapiens, UniProt P36896)
T2 sequence (P36896 24-505): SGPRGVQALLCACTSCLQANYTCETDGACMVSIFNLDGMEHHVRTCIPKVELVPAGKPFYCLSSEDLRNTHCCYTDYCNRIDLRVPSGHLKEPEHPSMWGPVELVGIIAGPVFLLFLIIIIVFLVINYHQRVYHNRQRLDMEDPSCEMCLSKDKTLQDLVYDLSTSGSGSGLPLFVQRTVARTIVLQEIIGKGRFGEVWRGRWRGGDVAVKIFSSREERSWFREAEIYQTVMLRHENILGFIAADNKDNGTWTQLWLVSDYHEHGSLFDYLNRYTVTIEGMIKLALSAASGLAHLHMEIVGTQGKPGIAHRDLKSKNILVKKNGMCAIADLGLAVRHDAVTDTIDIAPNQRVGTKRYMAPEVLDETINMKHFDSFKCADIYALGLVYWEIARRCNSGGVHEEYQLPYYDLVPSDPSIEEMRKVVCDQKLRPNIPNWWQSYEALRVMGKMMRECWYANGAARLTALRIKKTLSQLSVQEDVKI

BrSK1(h) = target: T3, BrSK1(h) (Homo sapiens, UniProt Q8TDC3)
T3 sequence (Q8TDC3 1-778): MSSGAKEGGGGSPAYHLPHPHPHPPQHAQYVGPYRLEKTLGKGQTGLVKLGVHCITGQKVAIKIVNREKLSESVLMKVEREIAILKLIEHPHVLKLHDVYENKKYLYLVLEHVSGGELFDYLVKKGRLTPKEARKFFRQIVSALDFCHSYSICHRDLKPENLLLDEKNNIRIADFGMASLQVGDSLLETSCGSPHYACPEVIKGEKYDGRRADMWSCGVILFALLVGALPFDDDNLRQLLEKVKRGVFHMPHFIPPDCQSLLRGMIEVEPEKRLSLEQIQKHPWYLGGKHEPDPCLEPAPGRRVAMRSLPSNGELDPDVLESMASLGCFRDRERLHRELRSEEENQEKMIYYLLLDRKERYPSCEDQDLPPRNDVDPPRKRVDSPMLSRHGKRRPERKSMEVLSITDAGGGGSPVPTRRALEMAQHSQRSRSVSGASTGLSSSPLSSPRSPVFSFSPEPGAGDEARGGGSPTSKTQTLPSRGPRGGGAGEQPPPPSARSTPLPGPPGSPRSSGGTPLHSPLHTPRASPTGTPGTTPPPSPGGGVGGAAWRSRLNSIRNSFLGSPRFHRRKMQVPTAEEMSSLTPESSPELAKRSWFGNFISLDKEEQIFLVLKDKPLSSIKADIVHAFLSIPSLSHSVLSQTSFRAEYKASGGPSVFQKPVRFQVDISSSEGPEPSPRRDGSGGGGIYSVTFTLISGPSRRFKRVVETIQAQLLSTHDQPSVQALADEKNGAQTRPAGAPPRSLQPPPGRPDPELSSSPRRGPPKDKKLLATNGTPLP

cKit(D816H)(h) = cKit(D816H)(h) (Homo sapiens, UniProt P10721, D816H)
BTK(R28H)(h) = BTK(R28H)(h) (Homo sapiens, UniProt Q06187, R28H)
Chain of BTK(R28H)(h) (Q06187 whole entry R28H): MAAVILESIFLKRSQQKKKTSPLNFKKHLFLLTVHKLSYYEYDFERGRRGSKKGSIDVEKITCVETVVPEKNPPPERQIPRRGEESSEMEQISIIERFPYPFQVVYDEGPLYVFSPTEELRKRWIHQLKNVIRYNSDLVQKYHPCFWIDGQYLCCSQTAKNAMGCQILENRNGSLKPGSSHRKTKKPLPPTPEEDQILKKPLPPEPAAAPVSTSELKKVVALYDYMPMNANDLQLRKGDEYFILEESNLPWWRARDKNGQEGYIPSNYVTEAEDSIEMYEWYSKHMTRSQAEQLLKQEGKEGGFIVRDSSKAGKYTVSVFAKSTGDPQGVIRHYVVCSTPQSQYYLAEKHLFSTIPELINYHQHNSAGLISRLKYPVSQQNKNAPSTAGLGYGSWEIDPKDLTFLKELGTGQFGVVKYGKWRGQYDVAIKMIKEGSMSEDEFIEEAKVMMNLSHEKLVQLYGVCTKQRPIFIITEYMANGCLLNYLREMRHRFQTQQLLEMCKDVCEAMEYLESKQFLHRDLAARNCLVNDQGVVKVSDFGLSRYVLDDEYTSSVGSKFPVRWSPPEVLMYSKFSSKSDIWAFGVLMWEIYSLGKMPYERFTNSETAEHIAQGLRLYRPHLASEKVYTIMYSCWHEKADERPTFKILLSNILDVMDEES

| Sequence | % activity (Abl(T315I)(h)) | % activity (TAO2(h)) | % activity (ALK4(h)) | % activity (BrSK1(h)) | % activity (cKit(D816H)(h)) | % activity (BTK(R28H)(h)) |
| --- | --- | --- | --- | --- | --- | --- |
| YARAAARQARAKALNRQLGVA [MMI-0200] | 108% | 93% | 152% | 93% |  |  |
| FAKLAARLYRKALARQLGVAA [MMI-0300] | 97% | 70% | 140% | 67% | 126% | 74% |
| KAFAKLAARLYRKALARQLGVAA [MMI-0400] |  | 74% | 130% | 76% | 143% | 24% |
| HRRIKAWLKKIKALARQLGVAA [MMI-0500] | 16% | 15% | 81% | 72% | 194% | 10% |
